# Measurements: patent US20240400656A1 (WASHINGTON UNIVERSITY, published 2024)
# T1: RoxP_HypProt_pET-22b
# T1 construct: also called RoxP_6
# T1 single chain: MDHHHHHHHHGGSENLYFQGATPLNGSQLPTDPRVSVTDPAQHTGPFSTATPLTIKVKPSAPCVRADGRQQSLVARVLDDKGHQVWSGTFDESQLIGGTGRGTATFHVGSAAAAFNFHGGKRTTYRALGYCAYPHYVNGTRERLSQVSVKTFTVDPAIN
# B1: 2H2F3 (antibody, V domains shown)
# VH: QVQLQQSGAELVRPGVSVKISCKGSGYTFTDYAMHWVKQSHAKSLEWIGIISTYYGNASYNQKFKGKATMTVDKSSSTAYMELARLTSEDSAIYYCARVPYYGSSYAMDYWGQGTSVTVSS
# VL: DVLMTQTPLSLPVSLGDQASISCRSSQNIVHSDGNTYLEWYLQKPGQSPKLLIYKVSNRFSGVPDRFSGSGSGTDFTLKISRVEAEDLGVYYCFQGSHVPWTFGGGTKLEIK
# notes: also called IgG-2H2F3-1; 2H2F3-1
# Target: T1, RoxP_HypProt_pET-22b
# Assay: indirect ELISA on recombinant RoxP orthologs, absorbance normalized (%)
binder,measurement,value
B1,binding result,no binding (tested: 330 ng/ml)
